# Reference: patent publication US7662769B2, “Glycosyltransferase GnT-V having neovascularization action” (Suntory Holdings Limited, priority 2002, dated 2010)
# *1 amine or outer side, *2 acyl side, *3 side chain or, on linkers, in order; H or OH if unused. Where a SMILES comes first, the peptide text is derived from it. [ ]: non-standard residue; d: D form. The star is where a group is joined. X1 = CC(N[*:1])C(=O)C(F)(F)C(=O)[*:2]; Boc = CC(C)(C)OC(=O)*
# B1: GnT-VΔ233: GnT-V lacking variant, amino acid sequence from Glu234 to Leu741 of human GnT-V with C-terminal polyhistidine tag (protein, UniProt Q09328 234-741, looked up, fragment)
# chain: EFRWMRLRIRRMADAWIQAIKSLAEKQNLEKRKRKKVLVHLGLLTKESGFKIAETAFSGGPLGELVQWSDLITSLYLLGHDIRISASLAELKEIMKKVVGNRSGCPTVGDRIVELIYIDIVGLAQFKKTLGPSWVHYQCMLRVLDSFGTEPEFNHANYAQSKGHKTPWGKWNLNPQQFYTMFPHTPDNSFLGFVVEQHLNSSDIHHINEIKRQNQSLVYGKVDSFWKNKKIYLDIIHTYMEVHATVYGSSTKNIPSYVKNHGILSGRDLQFLLRETKLFVGLGFPYEGPAPLEAIANGCAFLNPKFNPPKSSKNTDFFIGKPTLRELTSQHPYAEVFIGRPHVWTVDLNNQEEVEDAVKAILNQKIEPYMPYEFTCEGMLQRINAFIEKQDFCHGQVMWPPLSALQVKLAEPGQSCKQVCQESQLICEPSFFQHLNKDKDMLKYKVTCQSSELAKDILVPSFDPKNKHCVFQGDLLLFSCAGAHPRHQRVCPCRDFIKGQVALCKDCL
# modifications: C-terminal His tag
# B2: GnT-V: secretory type glycosyltransferase N-acetylglucosaminyltransferase V (protein, UniProt Q09328 1-741, looked up)
# Alpha-1,6-mannosylglycoprotein …: MALFTPWKLSSQKLGFFLVTFGFIWGMMLLHFTIQQRTQPESSSMLREQILDLSKRYIKALAEENRNVVDGPYAGVMTAYDLKKTLAVLLDNILQRIGKLESKVDNLVVNGTGTNSTNSTTAVPSLVALEKINVADIINGAQEKCVLPPMDGYPHCEGKIKWMKDMWRSDPCYADYGVDGSTCSFFIYLSEVENWCPHLPWRAKNPYEEADHNSLAEIRTDFNILYSMMKKHEEFRWMRLRIRRMADAWIQAIKSLAEKQNLEKRKRKKVLVHLGLLTKESGFKIAETAFSGGPLGELVQWSDLITSLYLLGHDIRISASLAELKEIMKKVVGNRSGCPTVGDRIVELIYIDIVGLAQFKKTLGPSWVHYQCMLRVLDSFGTEPEFNHANYAQSKGHKTPWGKWNLNPQQFYTMFPHTPDNSFLGFVVEQHLNSSDIHHINEIKRQNQSLVYGKVDSFWKNKKIYLDIIHTYMEVHATVYGSSTKNIPSYVKNHGILSGRDLQFLLRETKLFVGLGFPYEGPAPLEAIANGCAFLNPKFNPPKSSKNTDFFIGKPTLRELTSQHPYAEVFIGRPHVWTVDLNNQEEVEDAVKAILNQKIEPYMPYEFTCEGMLQRINAFIEKQDFCHGQVMWPPLSALQVKLAEPGQSCKQVCQESQLICEPSFFQHLNKDKDMLKYKVTCQSSELAKDILVPSFDPKNKHCVFQGDLLLFSCAGAHPRHQRVCPCRDFIKGQVALCKDCL
# B3: GnT-VΔ436: GnT-V lacking variant, amino acid sequence from Ile437 to Leu741 of human GnT-V with C-terminal polyhistidine tag (protein, UniProt Q09328 437-741, looked up, fragment)
# chain: IHHINEIKRQNQSLVYGKVDSFWKNKKIYLDIIHTYMEVHATVYGSSTKNIPSYVKNHGILSGRDLQFLLRETKLFVGLGFPYEGPAPLEAIANGCAFLNPKFNPPKSSKNTDFFIGKPTLRELTSQHPYAEVFIGRPHVWTVDLNNQEEVEDAVKAILNQKIEPYMPYEFTCEGMLQRINAFIEKQDFCHGQVMWPPLSALQVKLAEPGQSCKQVCQESQLICEPSFFQHLNKDKDMLKYKVTCQSSELAKDILVPSFDPKNKHCVFQGDLLLFSCAGAHPRHQRVCPCRDFIKGQVALCKDCL
# modifications: C-terminal His tag
# Legend:
# PaCa-2/GnT-V cell = test: GnT-V activity in culture solution (production of secretory type GnT-V), PaCa-2/GnT-V cell; assay type: cell-based; settings: 100 μM in DMSO, FIG. 10A
# KB/GnT-V cell = test: GnT-V activity in culture solution (production of secretory type GnT-V), KB/GnT-V cell; assay type: cell-based; settings: 100 μM in DMSO, FIG. 10B
# HUVEC [1] = test: HUVEC differentiation and growth, incorporation of [3H]-thymidine (DNA synthesis); assay type: cell-based, human; settings: [3H]-thymidine incorporation; FIG. 2, 3B, 6
# Procedure: For in vitro evaluation of induction of neovascularization by a GnT-V transformant, the amount of synthesis of DNA of human umbilical vein […] cells (HUVEC) after stimulation with culture solution of a GnT-V transformant was measured by a method of Soker et al.(Soker, S., et al., J. Biol. Chem. 272, 31582-31588 (1997)). HUVEC was inoculated on a 96-well plate coated with type I collagen at a rate of 2×10^3 cells per well, and 24 hours later, the medium was substituted with an MCDB131 medium (not containing FBS and FGF-2) containing 0.1% […] and a starved condition was maintained for 24 hours. The medium was substituted with culture solution of the WiDr cell transformed with the glycosyltransferase gene described in Example 1, and HUVEC was stimulated for 24 hours. HUVEC was maintained for 8 hours with [^3H]-thymidine (1 μCi/ml), and incorporation of [^3H]-thymidine into HUVEC was analyzed by MicroBeta-Counter (manufactured by Wallac) to measure the amount of synthesis of DNA. The result was shown as the mean value of assay results of 6 wells, and the standard deviation was measured. All experiments were repeated at least three times, and the same results were obtained. As apparent from FIG. 1, DNA synthesis of HUVEC stimulated with the culture solution of WiDr cells transformed with a GnT-V gene increased, however, the same effect was not observed in culture solution of WiDr cells transformed with other glycosyltransferase genes.
# Purification of a neovascularization factor present in culture solution of WiDr cells transformed with a GnT-V gene was conducted using various column chromatographies. The neovascularization activity of each fraction was evaluated by differentiation and growth of HUVEC described in Example 3. In heparin affinity chromatography, a fraction of high growth activity of HUVEC was eluted with 0.3 M NaCl. Since known growth factors such as FGF-1, FGF-2, VEGF, placenta-induced growth factor (PIGF) and hepatocyte growth factor (HGF) and the like are eluted with 0.8 to 1.5 M NaCl (Hauser, S. & Weich H. A., Growth Factor 9, 259-268 (1993). Gohda, E., et al., J. Clin. Invest. 81, 414-419 (1998). Marez, A., et al., Biochimie 69, 125-129 (1987). Risau, W., et al., The EMBO J. 7, 959-962 (1988). Rothenthal, R. A., et al., Growth Factor 4, 53-59 (1990)), the above-mentioned nature is utterly different from the natures of these known growth factors. […] A fraction eluted with 0.3 M NaCl in heparin affinity chromatography was subjected to Western blot analysis using an anti-GnT-V antibody to find that the reaction of the anti-GnT-V antibody and the differentiation and growth activity of HUVEC are consistent each other, and the main protein having a differentiation and growth activity of HUVEC present in the fraction is GnT-V itself.
# HSPG on HUVEC = test: release of FGF-2 from HSPG on HUVEC (FGF-2 ELISA of supernatant); assay type: cell-based, human; settings: 4° C., 2 hours; FIG. 5
# Text: A basic peptide (KRKRKK peptide) composed of Lys-Arg-Lys-Arg-Lys-Lys (SEQ ID NO: 11) which is an amino acid sequence of from 264 to 269 and a non-basic control peptide (FSGGPL peptide) composed of Phe-Ser-Gly-Gly-Pro-Leu (SEQ ID NO: 12) which is an amino acid sequence of from 291 to 296, of GnT-V, were synthesized, and an influence of these peptides on growth of HUVEC was examined. The peptide was synthesized by a peptide synthesizer A432 (manufactured by Applied Biosystems), and purified by reverse phase HPLC, then, its molecular weight and degree of purification were confirmed by MALDI TOF-MS (Voyager-DE (registered trademark) RP; manufactured by PerSeptive Biosystems). The concentration of FGF-2 was measured by a known method (Barillari, G., et al., American J. Patho. 152, 1161-1166 (1998)). […] After centrifugation at 4° C. and 3000 rpm for 5 minutes, the supernatant was collected, the concentration of FGF-2 in the supernatant was measured in an FGF-2 ELISA system (manufactured by R&D Systems) according to a manual of this system.
# As described above, various deficient variants of GnT-V and synthetic peptides were added at 4° C. to culture solution of HUVEC, and the amount of FGF-2 released from HSPG on HUVEC was measured.
# [2] = glycosyltransferase activity of GnT-V deficient variants; assay type: biochemical; settings: recombinant variants from Sf21 cells
# Text: For clarifying which domain of GnT-V is involved in HUVEC growth accelerating activity, a GnT-V lacking variant shown in FIG. 3A was produced. The method of production of a GnT-VΔ188 plasmid is disclosed in a literature of Sasai et al (Sasai, K., et al., Glycobiology (in press)). A transfer plasmid having a GnT-VΔ233 gene was produced by binding a DNA fragment of 1521 base pairs encoding polyhistidine tag at the C-terminal and an amino acid sequence of from Glu234 to Leu741 of human GnT-V, obtained by cutting a GnT-VΔ188 plasmid with EcoRI and EagI, to an EcoRI-EagI site of a transfer vector pAcGP67-A (manufactured by PharMingen). A transfer plasmid having a GnT-VΔ436 gene was produced by binding a DNA fragment of 912 base pairs encoding polyhistidine tag at the C terminal and an amino acid sequence of from Ile437 to Leu741, of human GnT-V, obtained by cutting a GnT-VΔ188 plasmid with EcoRV and EagI, to an EcoRV-EagI site of a transfer vector pAcGP67-A. For production of a recombinant Baculovirus, an insect cell Sf21 was transformed with the transfer plasmid obtained above according to a method known in a literature (Ikeda, Y., et al., J. Biochem. 128, 609-619 (2000)). The recombinant glycosyltransferase derived from the transformed Sf21 cell was purified by Ni^2+-chelating affinity chromatography according to a method disclosed in a literature of Sasaki et al (Sasai, K., et al., Glycobiology (in press)).
# HUVEC [3] = test: migration assay using HUVEC; assay type: cell-based, human
# Text: (§1) Induction of neovascularization by GnT-V was confirmed also by other in vitro neovascularization assays such as a capillary-like tube formation assay (Ashoton, A. W., et al., J. Biol. Chem. 274, 35562-35570 (1999)) and a migration assay (Zeng, H., et al., J. Biol. Chem. 276, 3271-3279 (2001)) using HUVEC.
# HUVEC [4] = test: capillary-like tube formation assay using HUVEC; assay type: cell-based, human
# Text: as §1
# chicken microvessels = test: CAM (chorioallantoic membrane) assay of neovascularization; assay type: in vivo; settings: ex-vivo, chicken embryo CAM
# Procedure: Acceleration of neovascularization by a GnT-V transformant was confirmed by a CAM (chorioallantoic membrane) assay using an embryo of a chicken fertilized egg. The CAM assay was conducted by a method of Yen et al. (Yen, L., et al., Oncogene 19, 3460-3469 (2000)) and a method of Bernardini (Bernardini, G., et al., Blood 96, 4039-4045 (2000)), both being slightly modified. CAM 8 days after fertilization of white Leghorn was used, and 1×10^5 cells thereof were inoculated on a collagen sponge and maintained for 4 hours. A 5 mm silicon ring was placed on CAM on the collagen sponge and maintained for 48 hours.
# as §1
Molecule,differentiation and growth of HUVEC (HUVEC growth accelerating activity) (HUVEC [1]),release of FGF-2 from HSPG on HUVEC (HSPG on HUVEC),glycosyltransferase activity [2],also measured
CCC(C)C(NC(=O)C(NC(=O)OC(C)(C)C)C(C)C)C(=O)NC(C)C(=O)C(F)(F)C(=O)NC(C(=O)NC(C(=O)OC)C(C)CC)C(C)C (centres unmarked) [DFK167] (Boc-VI[X1]VI-OMe; configuration not given here),,,,GnT-V activity in culture solution (PaCa-2/GnT-V cell): could not be detected; GnT-V activity in culture solution (KB/GnT-V cell): could not be detected
B1,had an HUVEC growth and differentiation accentuation action,released FGF-2,had no glycosyltransferase activity,
B2,,,,"induction of neovascularization, migration (HUVEC [3]): confirmed; induction of neovascularization, capillary-like tube formation (HUVEC [4]): confirmed"
B3,did not have an HUVEC growth and differentiation accentuation action,did not affect release of FGF-2,had no glycosyltransferase activity,induction of neovascularization in CAM assay (chicken microvessels): did not have a neovascularization activity
